“Also recorded” adds a separate entry of the source.
T1: human CD39 endogenously expressed on MEL-28 cells (Homo sapiens, UniProt P49961)
T1 construct: MEL-28 cells (35,000 MEL-28 cells/well) endogenously expressing human CD39; endogenous in cells; host or cells: MEL-28
T1 sequence (P49961 1-510): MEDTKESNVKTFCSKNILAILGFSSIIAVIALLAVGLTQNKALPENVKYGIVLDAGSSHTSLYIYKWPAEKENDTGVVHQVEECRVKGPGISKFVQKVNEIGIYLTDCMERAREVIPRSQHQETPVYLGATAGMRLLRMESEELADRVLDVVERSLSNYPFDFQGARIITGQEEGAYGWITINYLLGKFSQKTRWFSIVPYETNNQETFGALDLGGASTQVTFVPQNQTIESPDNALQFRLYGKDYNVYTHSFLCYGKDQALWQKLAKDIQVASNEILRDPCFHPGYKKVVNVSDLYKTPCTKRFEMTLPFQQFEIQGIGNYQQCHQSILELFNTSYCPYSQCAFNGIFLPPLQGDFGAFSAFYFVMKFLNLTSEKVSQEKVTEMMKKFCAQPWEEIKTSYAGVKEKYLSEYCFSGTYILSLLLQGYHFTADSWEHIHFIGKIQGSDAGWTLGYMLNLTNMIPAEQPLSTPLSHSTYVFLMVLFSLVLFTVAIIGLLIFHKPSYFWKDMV

T2: hCD39-ECD (Homo sapiens, UniProt P49961)
T2 sequence (P49961 38-478 limits assumed): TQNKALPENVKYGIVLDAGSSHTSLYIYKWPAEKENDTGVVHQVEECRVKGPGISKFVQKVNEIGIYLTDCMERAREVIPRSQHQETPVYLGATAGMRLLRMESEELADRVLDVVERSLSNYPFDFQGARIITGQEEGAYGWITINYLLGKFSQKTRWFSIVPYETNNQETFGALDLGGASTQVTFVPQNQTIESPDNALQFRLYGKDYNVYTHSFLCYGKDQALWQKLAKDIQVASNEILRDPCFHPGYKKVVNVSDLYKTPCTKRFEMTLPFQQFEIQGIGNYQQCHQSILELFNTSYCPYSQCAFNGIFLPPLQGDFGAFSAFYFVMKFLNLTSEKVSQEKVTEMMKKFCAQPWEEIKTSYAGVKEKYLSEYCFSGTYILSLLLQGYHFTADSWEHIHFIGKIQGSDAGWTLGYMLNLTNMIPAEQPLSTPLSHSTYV

T3: CD39 expressed on MEL-28 cells (Homo sapiens, UniProt P49961)
T3 construct: endogenous in cells; host or cells: MEL-28
T3 sequence (P49961 1-510): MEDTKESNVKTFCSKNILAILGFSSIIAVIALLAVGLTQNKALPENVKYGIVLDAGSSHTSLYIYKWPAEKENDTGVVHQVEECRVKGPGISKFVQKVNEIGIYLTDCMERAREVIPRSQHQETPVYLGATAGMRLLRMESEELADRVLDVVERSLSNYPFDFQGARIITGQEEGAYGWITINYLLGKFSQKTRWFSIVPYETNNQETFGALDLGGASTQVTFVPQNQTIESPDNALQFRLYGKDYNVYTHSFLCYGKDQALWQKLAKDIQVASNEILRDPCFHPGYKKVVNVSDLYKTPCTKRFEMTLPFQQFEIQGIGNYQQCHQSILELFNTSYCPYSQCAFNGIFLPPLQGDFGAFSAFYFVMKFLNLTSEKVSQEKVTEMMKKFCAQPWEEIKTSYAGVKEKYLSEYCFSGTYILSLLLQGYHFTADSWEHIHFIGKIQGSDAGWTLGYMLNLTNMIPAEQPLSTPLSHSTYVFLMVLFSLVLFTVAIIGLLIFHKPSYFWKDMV


Columns and labels:
[1] = target: T1, human CD39 endogenously expressed on MEL-28 cells; assay: EnzChek kinetic Pi detection assay on MEL-28 cells (initial velocity, Michaelis-Menten); type: cell-based; conditions: ARL 200 micromolar, isotype control 7.7
Description: Anti-CD39 antibodies (100 nanomolar), isotype control antibody (100 nanomolar), or ARL (200 micromolar) were incubated with MEL-28 cells endogenously expressing human CD39 for 2 hours. ATP was then added and the rate of ATP hydrolysis to Pi by CD39 was monitored using the EnzChek kinetic Pi detection assay. The initial enzyme velocity, ν0, was determined from the linear region of Pi vs. time curve over the first 15 minutes post-ATP addition. Each value is the mean of 3 replicates.
Anti-CD39 antibodies or isotype control antibody (100 nanomolar final concentration) were incubated with MEL-28 cells (35,000 MEL-28 cells/well) endogenously expressing human CD39 at 37° C. for 20 minutes in the presence of EnzChek reagents (PNP & MESG). Immediately following the addition of ATP (final concentrations ranging from 0-450 micromolar), the rate of ATP hydrolysis to free phosphate (Pi) by CD39 was monitored over time at Abs360 nm using SpectraMax i3x plate reader. The initial enzyme velocity, ν0, was determined from the linear region of Pi vs. time curve for each ATP concentration. The plot of ν0 vs. [ATP] was curve fit using non-linear regression of the Michaelis-Menten kinetic model.

hCD39-ECD [2] = target: T2, hCD39-ECD; assay: rhCD39-ECD ATPase inhibition (Malachite Green free phosphate); type: biochemical; design: purchased R&D Systems; conditions: 50 μg/ml antibody; 10 μM ATP; vs isotype or buffer controls
Description: 0.04-3.3 nM rhCD39-ECD (R&D Systems) was incubated with buffer, 50 μg/ml antibody or 100 μM POM-1 (Alpha Aesar) for 1 hr at 37° C. in assay buffer (25 mM Tris pH 7.5, 5 mM CaCl2) at which point ATP (Sigma) was spiked in to a final concentration of 10 μM, and the reaction further incubated for 30 min 37° C. Production of free phosphate (Pi) was subsequently measured using Malachite Green Phosphate Detection kit (R&D Systems).
(§1) Also, an 18 hour incubation was used with the antibody or isotype control. Finally, an additional 30 second baseline dip in buffer between antigen capture and dipping into a second competitor antibody for 300 seconds was used.

hCD39-ECD [3] = target: T2, hCD39-ECD; assay: Epitope binning / competition for hCD39-ECD binding by Bio-Layer Interferometry
Source text: A1 antibody was immobilized onto an Anti-Mouse IgG Fc Capture (AMC) biosensor (ForteBio). Association of hCD39-ECD was then monitored for 180 seconds via Bio-Layer Interferometry (BLI) using the Octet system (ForteBio), at which point the biosensor was dipped into competitor antibody and monitored for another 180 seconds.
The methods are the same as set forth above except that instead of A1, the representative antibody was immobilized using anti-human IgG Fc Capture (AHC) biosensor.
as §1

[4] = target: T3, CD39 expressed on MEL-28 cells; assay: Cellular CD39 ATPase inhibition (Malachite Green), Example 15; type: cell-based; conditions: 10-25 μg/ml antibody; 50 μM ATP; vs isotype control
Description: Indicated cells were incubated in assay buffer with 10-25 μg/ml antibody, 100 μM POM-1 or 100 μM ARL for 30 min at 37° C. 5% CO2. ATP was added to a final concentration of 50 μM and the incubation continued for 15 min. Supernatant was evaluated for free phosphate (Pi) using the Malachite Green Phosphate Detection kit. Palivizumab is used as an isotype control and POM-1 and ARL are non-specific small molecule inhibitors of CD39.
as §1

| ATP hydrolysis rate (initial velocity) [1] [micromolar Pi per minute] | competition / binning with other anti-CD39 antibody bin groups for ECD binding (hCD39-ECD [3]) | Molecule | inhibition of ATPase activity of soluble hCD39 ECD (μM Pi) (hCD39-ECD [2]) | competition with antibody A1 for binding to hCD39 ECD (hCD39-ECD [3]; A1 immobilized, ECD captured, then competitor antibody) | inhibition of ATPase activity of CD39 expressed on MEL-28 cells [4] |
| --- | --- | --- | --- | --- | --- |
| 1.2 |  | CCN(CC)c1ncnc2c1ncn2[C@@H]1O[C@H](COP(=O)(O)OP(=O)(O)C(Br)(Br)P(=O)(O)O)[C@@H](O)[C@H]1O [ARL] |  |  |  |
|  | do not compete | 27571: anti-human CD39 antibody inhibiting soluble ECD and cellular CD39 (antibody, V domains shown, Synthetic VH, 27571; Synthetic VL, 27571) VH: QVQLVQSGAEVKKPGSSVKASCKASGGTFSSYAISWVRQAPGQGLEWMGSIIPIFGTANYAQKFRGRVTITADESTSTTYMELSSLRSEDTAVYYCARESGGYRDHRLDVWGQGTMVTVSS VL: EIVMTQSPATLSVSPGERATLSCRASQSVGSNLAWYQQKPGQAPRLLIYGASTRATGIPARFSGSGSGTEFTLTISSLQSEDFAVYYCQQYLIWPLTFGGGTKVEIK | able to inhibit the hydrolysis of ATP by hCD39 ECD | does not block binding; also recorded: do not compete | inhibit the hydrolysis of CD39 expressed on MEL-28 cells |
